Read-outs that look alike come from different tables or passages of the source.

Holding throughout (assay): FRET or BRET
(In general: BRET reads energy transfer from a luciferase to a nearby fluorophore.)

Data set [1] concerns the molecule itself.
Data set [2] concerns the molecule itself. The source holds these as a separate data set.
Data set [3] deals with the molecule itself. This is another data set of the same source.

B1: Alexa-labelled apoC-II S61C (Alexa-488 apoC-II; Alexa-594 apoC-II) (natural protein, human, UniProt P02655 23-101, looked up)
chain: TQQPQQDEMPSPTFLTQVKESLSSYWESAKTAAQNLYEKTYLPAVDEKLRDLYSKSTAAMCTYTGIFTDQVLSVLKGEE
modifications: conjugated with Alexa dyes (Alexa 488 C5 maleimide or Alexa 594 C5 maleimide)
As to B1, the koff in “FRET or BRET [1]” is 0.0125 s⁻¹; in the data set “FRET or BRET [2]”, 0.00639 s⁻¹; in the data set “FRET or BRET [3]”, 0.161 s⁻¹.

As usually defined, the koff is the first-order rate constant of dissociation. Higher therefore signals fast dissociation.

The record behind these values is publication PMC2887044 (Journal of molecular biology, 2010).
